Measurements: CN114933651A (dated 2022)

Target: SARS-CoV-2RBD-hFc蛋白 (SARS-CoV-2; human)

B1: R14纳米抗体 (alpaca-derived nanobody R14, with C-terminal hexa-His tag) (VHH)
VHH: QVQLQESGGGLVQPGGSLRLSCAVSGFTLDYYAIGWFRQAPGKEREGVSCISSSDGSTSYADSVKGRFTISRDNAKNTVYLQMNSLKPEDTALYYCAATPATYYSGRYYYQCPAGGMDYWGQGTQVTVSS
Kd: < 100 pM
